Assay results from publication PMC10286996.
Several values for one entry are separate records, joined by “and”; a condition that tells them apart may be missing. Equal values may be shown once.

Molecular target: slipper limpet hemocyanin (Crepidula fornicata) (Crepidula fornicata)
Assay: cryo-EM structure; SLH (ion exchange flow-through) at 15 mg/ml, Chameleon grids, Glacios microscope, Relion 3.1; didecamer built with d5, tridecamer with c5 symmetry

## slipper limpet hemocyanin (Crepidula fornicata) (natural protein)
  stoichiometry N: 20 and 30
